Assay: soluble on expression in E. coli; label from the status in PepcDB or PDB records

MGSDKIHHHHHHMIGYGLPMPNQAHFSASFARPSTPAAKCMHHIRLGQQLIRNELVEATGLSQPTVTRAVTALMQAGLVRERPDLTLSSGPGRPNIPLELAPSPWIHAGVAIGTKSSYVALFDTKGRTLRDAMLEISAADLDPDTFIEHLIAGVNRLTTGLDLPLVGIGVATSGKVTNAGVVTASNLGWDGVDIAGRLNYQFSVPATVASAIPAIAASELQASPLPHPEQPTPITLTFYADDSVGAAYSNDLGVHVIGPLATTRGSGLDTLGMAAEDALSTQGFLSRVSDQGIFANSLGELVTIAKDNETAREFLNDRATLLAHTAAEAAETVKPSTLVLSGSAFSEDPQGRSVFASQLKKEYDADIELRLIPTHRENVRAAARAVALDRLLNEPLTLVP
soluble on expression in E. coli: not soluble

MGHHHHHHSHMVRKQSPYEDVQKQSRQHDPYKIIEPTPKKYLEGSAYEVIYNHLSYKHEILDKYIETNTAVFWIKKDDIFSVATILRHLGYECLSEMSAIDLCAKKGHFELFYQFVGFSDSCKNRRRVRVKCVLLPNESVDSLSFLYRSANWSEREAYDMLGIVFDKHPYLKRLIMPHDWVGHPLLRSYPLKGDEFAQWYEVDKIFGKEYREVVGKEQRDSARVDEKDTFNFAKIGYEQGKGEELKEVEEKHAFKKIPFVKDLHKIAPTILKKRL
soluble on expression in E. coli: soluble

SLEKSGFIVHQKFDSILQLEDFDSLDRALKESESYYQKLPSNWKTQVRKTSYHKNQMLNSLKILKKILREKNPESRKIQFQNSFLLLETKDEALGRITAYYEVIIEGRFYPEGDFIYPVLETPSDLIVKKDGNKKSVGKIINEVFVPYETREELSHTSVWKKRSKAIVYVKIVDLHLAQLEGSAFVKVPDHIPFRITYSEDNGKEYQSPAESLKGICSSLIPSDLKSCILKYPKEVEMAILKNPRYIFFKLESSAPRGSGGIELIPKRSVAMDPGIPLGIPVLISFESSVLTEKNRIVFVHDRGSQITGHGRLDYFLGTGETAEYQAGKINTQGKIFLILPKIKN
soluble on expression in E. coli: not soluble

NTQLNIKMQPDTQTLDEVVVIGYGTVKKRDLTGAVASVKSEDIVRMPTSNVLEAIQGQVAGLDITRSSGEAGSGVNMTLRGTRSINGDNSPLFIIDGMEGSYDELNPNDIASIEVLKDASSTAVYGAAGANGVIIITTKTPKKDK
soluble on expression in E. coli: not soluble

MKSPSAGAPDRHASSRSVPDRWNMHKPMLCDSLPTASRTAAAILNLAQREDVTAEALAQLIQTDPALTGRILRFANAPAQGTRRPVASVIDAIDLVGLPAVRQFALSLSLIDAHREGRCEAFDYAAYWQKSLARAVALQSITAQASTVAPKEAFTLGLLADVGRLALATAWPEEYSECLRKADGEALIALERERFATDHDELTRMLLTDWGFPQVFIDALQLSQQDEIRDEGRTGRFARQLALAQHIADHRLAEEPRRAALSPLLRAEARRCGLGDEDLARLLADPPADWLDWTRTIGLPGDAPTGGAEPSRPPPQTDEKLHVLLADDDPIMLARLSRQLEADGHHVASRRDGETALAYALEHQPEMVITDWHMKPMNGLELCRALRESALGGNVYIVMLTASESEDALVEAFGAGIDDYVIKPPSVRVLKARIRAGQRIITLHKKLARERKEIERYSSELAAANRRLELMAHTDQLTGLPNRRYAMDRLEREWAQARTFDRPLSIMMLDLDWFKSINDSLGHDAGDQALVHAARVMRETVRTSDVVCRMGGEEFLIIIPDTAGPAAIQTAERVRSAVEQQQPAKLKLSRPLTASIGVADSTSAPSLKDLLLKADNALYQVKQNGRNGVRYAGLAAALEHHHHHH
soluble on expression in E. coli: not soluble

MRFEEEIGSLQMLCDQFQNKINTLEKQMNEEKKDYVQKLHRLHEKNGEAIDKMKQLDHTMQAVSTKVVHLGDQLESVDQPRSRAHDAHQLMQHFDEFLSDQPLNSMIFTDPDKLLESADLVHKLYSISQELNKDKFANVQARIGQRYKVVEDLLIEEFVRSQRDEKKMAEVAKILSEFKGYSGCVDRYVDFLCQSIHPRGDGGEILADCLQLCRTQQPRISAIFPSPHTVMQKLVLNIFTGRMKETITARLRECKDTDDQEHYLRDLAYLYSSTLKMCKELEKLHISPDSAFLSTLTDSIFQRYIATYCSEELKYLNDQCSNLLQRFYESKKHVKKQIGGGLHELKRDVAARLMNVETYGGETFVAEDVAISILQETKNAFGRANQLCDKEELPRHVENIVDVLLKYLYGEHLDYAVETGLAGISLAESKTEPPAYFFSVVAKCTSVILLMIKQFEDPIFPIIKETIVEPSVAKKWQQSLRSLESKMSLGLERQLNSIVGYVKFLFSEQKKTDFRPDSQQIDIRVSPQCQLASRFLANQVAAMELGCDGENLEALQSDLATRLFKFMLTHIQQFTYNSTGAVLLLCDVGELRTLVSKWRVQNALTQWESLQALTNLLAVLPDQVNETAHSSLLENVDRQLIHDFVRLRTDFRSIKNFQI
soluble on expression in E. coli: not soluble

MDWVRLLSRLVQAESLPGEEGEAAGLLLEALKGMGLEATLDEAGNIEALLGEKGPEVVLTGHMDVVPVGDPARWPYPQGAVAEGSLWGRGAVDMKGSLVAMLLALETLARGALKGRVRFLAVVQEEVGGLGSRFAAERLSPLAFVLGEPSSGRLMRGHRGRRKVWADFEGRETHAALAGPENPLFDLGAYLLALQDLPLPPGVKLTPTRVDTHPGARNQTPGVVRLYLDVRYEPEADLDGLLAALRTLGPASVYLPEEERASGEVRMTLPALWPPYRLPEDHPLLQAALQALGQEEAGLWPFTTDAPYLGAKAPVLGLGPGDPALAHTPMEHVPLRAVEEAAQAYVRLVEALWNAD
soluble on expression in E. coli: soluble

MLVWEELREKALNKIYHDKEIGYLDPDILGFLLAFYRNRNDVYTQSSCSGRITIVDAEMPWDRKNSTIIFKNHLRITEQDLEDVLSKNQVRRLWLIVQGPIIHIYAKNIETGWDILKIAREAGFKHSGILATNQKGVLVELRTGIRMVHLLRESNTERVDKDKIKTLVNVCNEVLARGKQKMNLLKDLLSSSSNNSMELGKNSKLKTPI
soluble on expression in E. coli: soluble

MQRETGSERVDVDMEKPGMISRWYDDKGFGFILPKTGGEEVFLHISAFRGDRRPRQGDQVWFLASQDAQGRLRAERARLDALTIDPPTVRRGAQAPVTRAQARPAPTPPSALQRPLA
soluble on expression in E. coli: not soluble

GPGSMAATTEVTPEHVLQLTAPSTGFLCPITANTYNIEFYSFVVRDADTKQVMFEVERDASTYPSVASLAQLPEEQQQAARTIFYRFPPSMLRKQRVSATLLFGVNGDKPVPDLRMIERHYFRNTLVKTFDFKFGFCIPHSRNTWEAVYDVPQFNAEWLEAIEKGTNEMTSDSFYFADGRLIMHNRAFYDYSAPEEEFTK
soluble on expression in E. coli: soluble

MTKKIVLAGGTGFIGQYLQQRFEENGDEVVIISRRAPHVSWDDSEAVREALEGADMLVNLAGKSVNCRYNEQNKKAILQSRIDTTNILGEAVLACERPPKLWLNSSTATIYRHAEDRAMTEANGELGSGFSENVAKAWEEEFFSFQLPNTRQAALRISIVLGGDGGALTPYRYLTKFGLGGKQGSGKQMVSWIHVEDVFRVIRFIEEQEALEGVINCTSPQPVSNKVLTTAIRRAMNVKVGLPATAWMLEIGTFLLRTESELILKSRWVLPERLLQAGFTFQYETIDDALSEILVQSKSASHLLEHHHHHH
soluble on expression in E. coli: not soluble

MGSDKIHHHHHHMRSLTNAEIAHNRLLNSGLLQSKFSSAEDATRALFGIQSQYQQFGEISLFNRVPNLTKENLQMAYDDKGIIKIWGQRMTIHMYTPDDWFYVHDVYANKNNWLRKHADSLGRDLDEILVQMEELLLREDKVSKESFAALLGNEAKELMTWGGVFIQGSLDGKLFCVPESPKTKFYSHRNQIDSEREDAWITNKRSKTGLETMIDRYFSAFGPATIQDFKHWSGLRNSDYIETLEKLLENYICYIGEDGKNYYSKAKTQENVEMGSPLLLGKFDPLFVSYAKKNWLASEKETSLIWRTAGQIEAVLIINAQFFGTWRYKISGDKIVFQFYLSKKLTKKGQKLVEKEAIKLAEFLLKNYQGSIFEQI
soluble on expression in E. coli: not soluble

MEEEVSRKTVAISVQAAKLTGRVLFMACQKFLAGVQKHNRDALTPHGRQTVKQLMGHTGQSNSIQLKGDARLFDRVARKFNVDYAFHKVGPKDYLLFFKAGQADAITAAFSEYTKRVMARQNDKPSIRRGLRQAMGRVKPRQKEREKTREAVQER
soluble on expression in E. coli: not soluble

GSMKPMGPNDYMVIGLARIDDRLIHGQVATRWTKETNVSRIIVVSDEVAADTVRKTLLTQVAPPGVTAHVVDVAKMIRVYNNPKYAGERVMLLFTNPTDVERLVEGGVKITSVNVGGMAFRQGKTQVNNAVSVDEKDIEAFKKLNARGIELEVRKVSTDPKLKMMDLISKIDK
soluble on expression in E. coli: soluble

MSLADKRIGILVYDGVLTSDVTAPLEVFGVASRLTWFSDYEVLTISVSDQKTITTEEGLEIGVDAWIGDQPELDVLVLTSSYDMDALIENKDLIHFIQTTSKAADWMASNCSGAYLLAEAGLLNGKKATTWAGGENGLQKDYPAVDVQFNQNFVVDDGVITSNGSLVSYQAALKLLHLMTSESKAQEVADALQYSRFSTEGHHHHHH
soluble on expression in E. coli: soluble

MNLNIETSRRIELIDITSEVKEEVRISGVREGVCIISTRHTTAGIIVNENENGLREDILNMLERLVPQGAGYRHDRIDNNADSHLKAILLGSSEALPIVKGELELGTWQSIFFAEMDGPRNRAVNLTILKTELEHHHHHH
soluble on expression in E. coli: soluble

MLQALLDSKDFLALTLANPQTLGDEFSFTLGEHTRVNVWDTGVIVFEPAQPQGKDVILSCGVHGNETAPIELCNTLIKQLLQQKIIAKQRTLFLIGNPLAINNGTRIIDENMNRLFSGEHSNPPGLVNPERLRAKKLETYVDRFFKAAAAGRQRIHYDLHTAMRASKHEKFAIYPYRPGRAYSAEQIMFLAASGVDTVLFHHEPTTTFSYFSSEQYGADAFTIELGKVYPMGQNDMTRFIAAQEMFTRLITDKPLQLESFSTDKVNLYQVCRVINKHFDDFEFTFATDVENFRAFPKGFVLAREGGQEIKVEQEVESIVFPNAKVPIGNRTVICLIPSVAPDVRLEHHHHHH
soluble on expression in E. coli: soluble

RYWKPEFHPDNSKSIEEWTDEIHTTLQKIMPEVKSENETAELFLSGGVDSSYILAMSDIEKTGSCGYEEERFDESKLAQQTANILGCKNSRYIITPEEYFASVPYVMYHMEQPTGDASAIVFAIGCKAAAENTNICYSGEGADEFFGGYNIYHKAECYGENLKTFYIGNTNIMNEGEKRKILKKYNPDVLPIEVVKGIYEETEELDTLTNMSNVDIQIWLEGDIYFNIDKMSTAVGLEVRMPLTDTRIFDIASRIPSEYKVKGKENKIAFRTAASKTLPEEIAFRNKLGFIVPIRIWMADDQYNKDIRDKFNSEIADKFFNIDEINEIFNDYISGNSDNWRKIWMIYTFLVWYEIYFVKC
soluble on expression in E. coli: not soluble

LTARFTNTELNGYQRLMSYFEEMVKVEDDVCNANKCLLVKLSAEVSDLSEPMRIALRRGADKTIQAMAECIDVGIQDGSIPSGDSALLARQIYYLWNGASLLNKLYQDQEALTQSLTYTQHLLQNTRTCP
soluble on expression in E. coli: not soluble

MDSFKVVLEGPAPWGFRLQGGKDFNVPLSISRLTPGGKAAQAGVAVGDWVLNIDGENAGSLTHIEAQNKIRACGERLSLGLSRAQPVQSKPQKVQTSDKQLLRQPVPDASKQRLMEDTEDWRPRPGTGQSRSFRILAHLTGTEFMQDPDEEFMKKSREKYVLELQSPRYTRLRDWHHQRSAHVLNVQS
soluble on expression in E. coli: soluble

MKRHFRPSLIKTEAWEGYEFADKEIKITESTDCYGAVLWPSAMVLCHFLDSHRDQYNLLDKKIIELGAGTGLVTIVTSLLGAQVTSTDLPDVLANLRHNVNRNTRGRCRHEPQVTELIWGQQLEERFPRYTCQYDYILAADVVYGHPYLQELLETFIHLCSDHTVILWAMRFRLDPENRFVHTFQEHFHLEELYDLPSLSIKLYRAHKR
soluble on expression in E. coli: not soluble

Reference: the DeepSol protein solubility set
